Results on one molecule are retold here after patent US20150038419A1 (US Dept. of Health and Human Services, published 2015).

For test [1], the target named is T1, elastase (human; for SPR purified from human sputum) (human, UniProt P08246 30-267).
T1 sequence (looked up): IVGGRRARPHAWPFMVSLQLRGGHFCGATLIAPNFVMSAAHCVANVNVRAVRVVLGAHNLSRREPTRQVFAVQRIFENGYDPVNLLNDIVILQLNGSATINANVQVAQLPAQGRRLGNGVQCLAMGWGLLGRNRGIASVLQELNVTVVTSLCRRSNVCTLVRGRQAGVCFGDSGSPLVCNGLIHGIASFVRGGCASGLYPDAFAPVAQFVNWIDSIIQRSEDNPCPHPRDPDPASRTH
Description: cell-based or functional assay.

The target in test [2] is T2, cathepsin G (human) (human, UniProt P08311 21-244).
T2 sequence (looked up): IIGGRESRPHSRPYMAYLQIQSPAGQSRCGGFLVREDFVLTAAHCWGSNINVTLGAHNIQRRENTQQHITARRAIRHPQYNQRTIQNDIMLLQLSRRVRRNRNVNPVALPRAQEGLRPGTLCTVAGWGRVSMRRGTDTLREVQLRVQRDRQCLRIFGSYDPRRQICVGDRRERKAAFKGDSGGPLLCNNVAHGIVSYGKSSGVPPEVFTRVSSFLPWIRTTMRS
Briefly: cell-based or functional assay.

The target of another test is plasmin (human) (human, UniProt P00747 97-810). Description: cell-based or functional assay.
The target of another test is kallikrein (human) (human, UniProt P03952 20-638, limits assumed). Description: cell-based or functional assay.
Test [3] addresses trypsin (sequencing grade, Roche) (human). Briefly: cell-based or functional assay.
The next test addresses skin β-tryptase (human) (human, UniProt Q15661 31-275). Description: cell-based or functional assay.
Test [4] has as its target T3, human activated coagulation factor X (FXa) (human, UniProt P00742 41-179; P00742 235-488). Briefly: cell-based or functional assay.
The target in test [5] is coagulation Factor XIa (FXIa) (human, UniProt P03951 19-625). Description: cell-based or functional assay.
The target in test [6] is T4, coagulation Factor VIIa (FVIIa), recombinant (UniProt P08709 61-466).
T4 construct: mature
T4 sequence (looked up): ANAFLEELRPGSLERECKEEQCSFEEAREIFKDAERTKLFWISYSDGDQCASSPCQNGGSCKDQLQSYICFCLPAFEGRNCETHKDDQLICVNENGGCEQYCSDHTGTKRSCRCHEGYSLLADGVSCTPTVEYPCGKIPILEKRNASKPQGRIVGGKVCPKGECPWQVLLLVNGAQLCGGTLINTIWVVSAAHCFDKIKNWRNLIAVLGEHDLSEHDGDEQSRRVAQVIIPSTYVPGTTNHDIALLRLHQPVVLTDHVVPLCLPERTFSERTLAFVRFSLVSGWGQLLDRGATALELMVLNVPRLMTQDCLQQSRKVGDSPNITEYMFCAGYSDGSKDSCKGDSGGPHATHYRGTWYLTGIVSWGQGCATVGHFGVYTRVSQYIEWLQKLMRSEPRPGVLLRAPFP
Description: SPR (Biacore T100), rSimukunin immobilized on CM5. A general note: Surface plasmon resonance follows binding to a sensor surface in real time, without labels.

Test [7] deals with T5, coagulation Factor XIIIa (FXIIIa) (UniProt P00488 39-732, limits assumed).
T5 construct: mature
T5 sequence (looked up): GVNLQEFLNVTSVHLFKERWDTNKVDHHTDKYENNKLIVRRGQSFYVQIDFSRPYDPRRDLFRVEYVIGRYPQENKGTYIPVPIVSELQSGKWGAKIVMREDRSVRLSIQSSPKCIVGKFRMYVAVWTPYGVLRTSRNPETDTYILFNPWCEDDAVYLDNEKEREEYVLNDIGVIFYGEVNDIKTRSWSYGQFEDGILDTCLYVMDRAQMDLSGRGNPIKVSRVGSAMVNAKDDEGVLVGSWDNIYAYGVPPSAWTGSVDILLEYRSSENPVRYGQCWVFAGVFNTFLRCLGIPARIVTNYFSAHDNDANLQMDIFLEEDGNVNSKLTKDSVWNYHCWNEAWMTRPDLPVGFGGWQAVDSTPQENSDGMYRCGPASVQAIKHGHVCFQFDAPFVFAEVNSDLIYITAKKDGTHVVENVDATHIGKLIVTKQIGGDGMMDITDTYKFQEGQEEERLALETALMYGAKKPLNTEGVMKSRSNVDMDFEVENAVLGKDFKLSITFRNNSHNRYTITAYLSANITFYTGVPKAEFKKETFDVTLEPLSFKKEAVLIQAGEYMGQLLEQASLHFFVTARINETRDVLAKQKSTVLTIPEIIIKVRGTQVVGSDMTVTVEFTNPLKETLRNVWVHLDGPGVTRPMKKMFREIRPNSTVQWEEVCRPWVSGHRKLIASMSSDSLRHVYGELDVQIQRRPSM
Briefly: SPR (Biacore T100), rSimukunin immobilized on CM5.

The target in test [8] is T6, coagulation Factor X (FX), zymogen precursor of FXa (UniProt P00742 41-488).
T6 construct: mature; also called zymogenic form of FX
Description: SPR (Biacore T100), rSimukunin immobilized on CM5.

The target in test [9] is T3, human activated coagulation factor X …. Description: SPR (Biacore T100), rSimukunin immobilized on CM5, FXa as analyte, 1:1 Langmuir fit. Here is the method: (§1) Data were fitted using a […] binding model (Langmuir). RU: resonance units.
(§2) Surface plasmon resonance (SPR) assays. SPR experiments were conducted using a T100 instrument (Biacore Inc., Uppsala, Sweden) following the manufacturer's instructions. Sensor CM5, amine coupling reagents, and buffers were also purchased from Biacore Inc. (Piscataway, N.J., USA). IBS P (10 mM Hepes, pH 7.4, 150 mM NaCl, and 0.005% (v/v) P20 surfactant) was used as the running buffer for all SPR experiments, which were carried out as previously described (Albrecht et al., 1983, Hoppe Seylers Z Physiol Chem; 364:1697-1702). For analytes, FVIIa (recombinant) was purchased from American Diagnostica (Stamford, Conn.); FX, FXa (human, bovine, mouse), DEGR-FXa (human), des-Gla-FXa (human), FIXa, FXIa, FXIIIa, and thrombin were purchased from Haematologic Technologies, Inc. (Essex Junction, Vt.); elastase (purified from human sputum) was purchased from Molecular Innovations, Inc. (Novi, Mich.). All enzymes were of the highest available purity. For immobilization and kinetic analysis, rSimukunin (10 μg/ml) in acetate buffer pH 5.0 was immobilized over a CM5 sensor via amine coupling, resulting in a final immobilization of 475.3 RU. Kinetic experiments were carried out with a contact time of 180 seconds at a flow rate of 30 μl/minute at 25° C. rSimukunin-FXa complex dissociation was monitored for 1800 seconds, and the sensor surface was regenerated by a pulse of 30 seconds of 20 mM HCl at 30 μl/minute. In other experiments, other coagulation factors or enzymes were used as analytes. Blank flow cells were used to subtract the buffer effect on sensorgrams.

Test [10] has as its target T1, elastase (human; for SPR purified from …). Briefly: SPR (Biacore T100), rSimukunin immobilized on CM5, elastase as analyte, 1:1 Langmuir fit. Here is the method: as §1, §2
Test [11] has the same target. Description: calculated by Cheng-Prusoff from the enzyme-inhibition IC50 and the substrate Km (250 uM substrate). On the procedure:
(§3) The Kₘ for the elastase substrate was 38.5±3.3 μM, and the estimated Kᵢ was ˜0.65 nM. For FXa the substrate Kₘ was 161.6±17.4 μM, and the estimated Kᵢ was ˜2.1 nM. For Cathepsin G the Kₘ was 188±20 μM, and the Kᵢ was 100 nM. A general chymotrypsin substrate was used to assess Cathepsin G activity; as this substrate is not optimized for Cathepsin G it is likely that our measurement of the Kᵢ underestimates the effect of rSimukunin. Further studies of the effect of rSimukunin on Cathepsin G will be performed.
(§4) Enzymes, at the concentrations given in Table 1, were incubated with the indicated concentration of rSimukunin for five minutes at 30° C., followed by addition of substrate (250 μM final concentration). The amount of enzyme used in the assays was the lowest possible to give a linear substrate hydrolysis rate in the assays (r2>0.95). Substrate hydrolysis was followed in a Tecan Infinite M200 96-well plate fluorescence reader (Tecan group Ltd, Switzerland) using 365 nm excitation and 450 nm emission wavelength with a cutoff at 435 nm for 20 min at 30° C. Wells without enzyme were used to monitor spontaneous substrate hydrolysis and protease contamination in the inhibitor preparation. All experiments were performed in triplicate (for each enzyme and each concentration of the inhibitor). […]

For test [12], the target named is T3, human activated coagulation factor X …. The description is as above. Here is the method:
as §3, §4

The next test deals with T7, chymase (human) (human, UniProt P23946 22-247).
T7 construct: mature
T7 sequence (looked up): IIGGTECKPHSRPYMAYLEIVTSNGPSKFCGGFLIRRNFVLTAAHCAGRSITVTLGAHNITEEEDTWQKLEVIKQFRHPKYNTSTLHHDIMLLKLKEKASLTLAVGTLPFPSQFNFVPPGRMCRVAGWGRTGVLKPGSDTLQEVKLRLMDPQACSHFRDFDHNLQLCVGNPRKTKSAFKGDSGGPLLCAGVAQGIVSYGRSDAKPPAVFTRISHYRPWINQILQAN
Description: enzyme inhibition assay, fluorogenic peptide substrate, 500 nM rSimukunin, 1.8 nM enzyme. Here is the method: Serine protease inhibition assays. rSimukunin (500 nM) was first pre-incubated with each enzyme for 10 min before the addition of the corresponding substrate. The amount of enzyme used in the assays was the lowest possible to give a linear substrate hydrolysis rate in the assays (r²>0.95). After incubation for 5 min at 30° C., substrate hydrolysis rate was followed in a Tecan Infinite M200 96-well plate fluorescence reader (Tecan group Ltd, Switzerland) using 365 nm excitation and 450 nm emission wavelength with a cutoff at 435 nm for 20 min at 30° C. Wells without enzyme were used to monitor spontaneous substrate hydrolysis and protease contamination in the inhibitor preparation. A t-test was used for the statistical analysis of the observed inhibition in the presence of 500 nM rSimukunin and when p<0.05, it was considered as statistically significant.
All enzymes used were of human origin and of the highest available purity. […]

The target of test [13] is T2, cathepsin G (human). Briefly: calculated by Cheng-Prusoff from the enzyme-inhibition IC50 and the substrate Km (250 uM general chymotrypsin substrate). Here is the method:
as §3, §4

T3 sequence (P00742 41-179 limits assumed, chain 1 of 2): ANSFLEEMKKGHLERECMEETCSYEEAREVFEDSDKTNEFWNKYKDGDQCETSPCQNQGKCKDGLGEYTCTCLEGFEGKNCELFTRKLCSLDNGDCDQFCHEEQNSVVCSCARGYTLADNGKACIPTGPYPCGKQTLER
T3 sequence (P00742 235-488 limits assumed, chain 2 of 2): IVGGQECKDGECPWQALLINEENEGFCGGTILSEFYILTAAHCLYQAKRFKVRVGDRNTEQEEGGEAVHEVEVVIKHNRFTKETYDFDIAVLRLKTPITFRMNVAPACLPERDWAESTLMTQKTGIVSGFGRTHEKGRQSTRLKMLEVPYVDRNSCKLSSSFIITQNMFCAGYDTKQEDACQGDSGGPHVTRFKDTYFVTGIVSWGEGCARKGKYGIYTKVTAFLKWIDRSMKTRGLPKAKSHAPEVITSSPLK
Sequence of trypsin (sequencing grade, Roche) (human) (P00760 24-246): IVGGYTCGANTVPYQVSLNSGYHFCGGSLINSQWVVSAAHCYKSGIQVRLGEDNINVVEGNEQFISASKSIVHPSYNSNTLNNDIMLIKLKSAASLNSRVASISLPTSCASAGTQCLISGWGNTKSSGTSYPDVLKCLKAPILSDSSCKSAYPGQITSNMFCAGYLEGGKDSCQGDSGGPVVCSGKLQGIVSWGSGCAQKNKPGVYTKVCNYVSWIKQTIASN
Sequence of kallikrein (human) (P03952 20-638 limits assumed): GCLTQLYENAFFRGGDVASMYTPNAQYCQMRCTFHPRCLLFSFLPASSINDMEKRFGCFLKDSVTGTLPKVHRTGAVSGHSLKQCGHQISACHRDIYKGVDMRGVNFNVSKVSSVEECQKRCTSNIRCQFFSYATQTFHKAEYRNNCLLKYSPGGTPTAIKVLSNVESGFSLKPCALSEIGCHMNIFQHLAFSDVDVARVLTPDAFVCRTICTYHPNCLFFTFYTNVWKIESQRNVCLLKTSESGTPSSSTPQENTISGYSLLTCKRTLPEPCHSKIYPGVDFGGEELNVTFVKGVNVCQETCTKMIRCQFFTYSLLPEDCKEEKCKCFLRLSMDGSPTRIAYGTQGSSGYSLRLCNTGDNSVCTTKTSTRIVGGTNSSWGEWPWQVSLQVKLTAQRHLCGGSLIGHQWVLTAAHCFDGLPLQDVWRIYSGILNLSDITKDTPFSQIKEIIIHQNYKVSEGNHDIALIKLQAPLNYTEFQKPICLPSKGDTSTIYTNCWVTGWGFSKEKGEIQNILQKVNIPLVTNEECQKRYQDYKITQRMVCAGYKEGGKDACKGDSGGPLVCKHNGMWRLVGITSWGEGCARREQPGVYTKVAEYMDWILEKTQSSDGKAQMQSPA
T6 sequence (P00742 41-488 limits assumed): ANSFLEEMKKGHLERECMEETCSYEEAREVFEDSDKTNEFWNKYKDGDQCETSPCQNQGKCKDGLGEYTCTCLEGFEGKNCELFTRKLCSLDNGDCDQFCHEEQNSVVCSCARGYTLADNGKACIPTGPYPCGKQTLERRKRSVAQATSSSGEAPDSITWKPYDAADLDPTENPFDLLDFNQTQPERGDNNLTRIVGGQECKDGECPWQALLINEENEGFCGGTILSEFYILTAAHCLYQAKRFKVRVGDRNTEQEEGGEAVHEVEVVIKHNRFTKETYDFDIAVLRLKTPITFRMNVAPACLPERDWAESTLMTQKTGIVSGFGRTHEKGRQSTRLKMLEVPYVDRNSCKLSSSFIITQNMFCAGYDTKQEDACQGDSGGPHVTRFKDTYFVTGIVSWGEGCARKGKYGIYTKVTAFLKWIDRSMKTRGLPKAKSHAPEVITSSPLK
Sequence of plasmin (human) (P00747 97-810): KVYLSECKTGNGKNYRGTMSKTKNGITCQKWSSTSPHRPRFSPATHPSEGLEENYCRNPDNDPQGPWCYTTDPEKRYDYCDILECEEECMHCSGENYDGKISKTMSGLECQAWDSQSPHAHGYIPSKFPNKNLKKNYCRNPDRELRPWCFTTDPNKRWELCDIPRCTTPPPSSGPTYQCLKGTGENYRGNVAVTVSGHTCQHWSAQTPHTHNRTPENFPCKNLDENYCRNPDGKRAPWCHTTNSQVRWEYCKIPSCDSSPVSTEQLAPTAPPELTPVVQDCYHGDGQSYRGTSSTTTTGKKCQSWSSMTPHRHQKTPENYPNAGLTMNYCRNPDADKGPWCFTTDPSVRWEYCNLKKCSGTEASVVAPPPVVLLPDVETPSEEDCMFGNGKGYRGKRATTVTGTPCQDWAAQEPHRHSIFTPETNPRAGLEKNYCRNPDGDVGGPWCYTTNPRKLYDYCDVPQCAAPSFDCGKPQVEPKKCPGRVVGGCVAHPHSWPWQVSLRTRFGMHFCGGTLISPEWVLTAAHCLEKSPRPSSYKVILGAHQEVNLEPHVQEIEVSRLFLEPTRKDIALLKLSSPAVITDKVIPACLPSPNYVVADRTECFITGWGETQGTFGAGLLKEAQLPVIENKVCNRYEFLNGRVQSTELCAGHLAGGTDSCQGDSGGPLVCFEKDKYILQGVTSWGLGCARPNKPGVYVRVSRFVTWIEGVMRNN
Sequence of skin β-tryptase (human) (Q15661 31-275): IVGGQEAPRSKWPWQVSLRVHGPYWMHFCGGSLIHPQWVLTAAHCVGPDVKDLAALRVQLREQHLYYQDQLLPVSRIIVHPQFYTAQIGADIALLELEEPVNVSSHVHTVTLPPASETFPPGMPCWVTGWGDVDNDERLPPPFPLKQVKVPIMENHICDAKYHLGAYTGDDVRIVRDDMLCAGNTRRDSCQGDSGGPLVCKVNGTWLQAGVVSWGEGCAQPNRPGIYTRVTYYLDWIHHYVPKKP
Sequence of coagulation Factor XIa (FXIa) (P03951 19-625 limits assumed): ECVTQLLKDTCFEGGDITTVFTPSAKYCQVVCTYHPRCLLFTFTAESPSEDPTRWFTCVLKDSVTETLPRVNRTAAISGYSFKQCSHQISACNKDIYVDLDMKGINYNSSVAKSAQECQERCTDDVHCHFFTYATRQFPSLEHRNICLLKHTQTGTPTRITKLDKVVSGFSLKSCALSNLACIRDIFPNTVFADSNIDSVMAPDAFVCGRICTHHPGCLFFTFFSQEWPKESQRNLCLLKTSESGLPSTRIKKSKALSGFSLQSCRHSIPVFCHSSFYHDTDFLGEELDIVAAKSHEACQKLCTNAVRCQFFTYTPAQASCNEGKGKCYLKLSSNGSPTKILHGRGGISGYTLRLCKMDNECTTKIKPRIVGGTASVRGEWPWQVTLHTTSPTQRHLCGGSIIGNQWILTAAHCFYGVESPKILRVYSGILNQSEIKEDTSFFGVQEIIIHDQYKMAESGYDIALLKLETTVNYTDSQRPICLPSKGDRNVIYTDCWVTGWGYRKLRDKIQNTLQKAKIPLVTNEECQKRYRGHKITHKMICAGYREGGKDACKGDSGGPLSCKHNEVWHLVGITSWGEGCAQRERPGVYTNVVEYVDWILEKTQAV

B1: recombinant Simukunin (rSV-66), Simulium vittatum SV-66 without signal peptide, His-tagged, expressed in E. coli (other)
chain: QENVCNLPVDEGVCRALFKRFYYEPATDSCKEFYYGGCEGNGNRFKSKKECILKCQKNKQLIKTRKRKPKKTTKPPIPIISLD
notes: also called rSimukunin; WT rSimukunin; not shown: His tag(s) from vector pET-30 Ek/LIC ('C-terminal double His tags')
As to B1, the “Ratio of IC50 to enzyme concentration” value in [1] came out at 27.2; in the test with cathepsin G (human) [2], 32.5; with plasmin (human), 161; with kallikrein (human), 1150; in test [3], 3790; in the test with skin β-tryptase (human), 6680. For the same molecule, the figures for the “Ratio of IC50 to enzyme concentration” value in test [4] and in test [5] were 52 and 945, respectively. Moreover, the binding result in test [6] was “no binding (tested: 200 nM)”; in [7], “no binding (tested: 200 nM)”; in test [8], “no binding (tested: 200 nM)”; with chymase (human) it was “binds”. Further, the values for the Kd in test [9] and in [10] were 3.07 nM and 0.4 nM, respectively. Besides, the figures for the koff in test [9] and in test [10] were 0.000303 s⁻¹ and 0.0173 s⁻¹, respectively. Also, the kon (as a rule, the second-order rate constant of association) in test [9] was 98700 M⁻¹ s⁻¹; in [10], 4.3e+07 M⁻¹ s⁻¹. Further, the Ki – broadly, the equilibrium dissociation constant of an inhibitor or competing ligand from its target – in [11] is about 0.65 nM; in test [12], about 2.1 nM; with cathepsin G (human) [13], 100 nM.
